# Data: patent EP4617284A1 (Shanghai Novamab Biopharmaceuticals Co., Ltd., dated 2025)
# Several values for one entry are separate records, joined by “and”; a condition that tells them apart may be missing. Identical values can stand only once.
# B1: MY9470 (VHH)
# chain: EVQLLESGGGLVQPGESLRLSCEVSGHTHTNYCMGWFRQAPGKGLEGVAAIDTDGSTTYADSVKGRFTISKDNAKNTLYLQMNSLKPEDTAMYYCMAEDFRDEYAPEPRLSSGGYCSIGYGMDYWGKGTLVTVSSGGGGSGGGGSGGGGSGGGGSEVQLLESGGGLVQPGESLRLSCEVSGHTHTNYCMGWFRQAPGKGLEGVAAIDTDGSTTYADSVKGRFTISKDNAKNTLYLQMNSLKPEDTAMYYCMAEDFRDEYAPEPRLSSGGYCSIGYGMDYWGKGTLVTVSS
# B2: MY9431 (VHH)
# chain: EVQLLESGGGLVQPGGSLRLSCAASGFTFSDYTMTWVRQAPGKGLEWVSTVNPDGDSTFYRDSVKGRFTISRDNAKNTLYLQLSSLKTEDTAMYYCTKASLITWPQSPRGQGTLVTVSSGGGGSGGGGSGGGGSGGGGSEVQLLESGGGLVQPGESLRLSCEVSGHTHTNYCMGWFRQAPGKGLEGVAAIDTDGSTTYADSVKGRFTISKDNAKNTLYLQMNSLKPEDTAMYYCMAEDFRDEYAPEPRLSSGGYCSIGYGMDYWGKGTLVTVSS
# B3: MY9286 (VHH)
# VHH: EVQLLESGGGLVQPGGSLRLSCAASGFTFSDYTMTWVRQAPGKGLEWVSTVNPDGDSTFYRDSVKGRFTISRDNAKNTLYLQLSSLKTEDTAMYYCTKASLITWPQSPRGQGTLVTVSS
# B4: Lebrikizumab (antibody, V domains shown)
# VH: QVTLRESGPALVKPTQTLTLTCTVSGFSLSAYSVNWIRQPPGKALEWLAMIWGDGKIVYNSALKSRLTISKDTSKNQVVLTMTNMDPVDTATYYCAGDGYYPYAMDNWGQGSLVTVSS
# VL: DIVMTQSPDSLSVSLGERATINCRASKSVDSYGNSFMHWYQQKPGQPPKLLIYLASNLESGVPDRFSGSGSGTDFTLTISSLQAEDVAVYYCQQNNEDPRTFGGGTKVEIKR
# B5: MY9293 (VHH)
# VHH: EVQLLESGGGLVQPGESLRLSCEVSGHTHTNYCMGWFRQAPGKGLEGVAAIDTDGSTTYADSVKGRFTISKDNAKNTLYLQMNSLKPEDTAMYYCMAEDFRDEYAPEPRLSSGGYCSIGYGMDYWGKGTLVTVSS
# B6: MY9466 (VHH)
# VHH: EVQLLESGGGLVQPGESLRLSCEVSGHTHTNYCMGWFRQAPGKGLEGVAAIDTDGSTTYADSVKGRFTISKDNAKNTLYLQMNSLKPEDTAMYYCMAEDFRDEYAPEPRLSSGGYCSIGYGMDYWGKGTLVTVSS
# B7: MY9219 (bispecific antibody)
# chain: EVQLQESGGGLVEPGGSLRLSCVASGFTFQHYAMSWVRQAPGKGLEWVSSISMVGGGTSYADSVKGRFTMSRDNAKNTLYLQLNSLKSEDTAMYYCVRGWHPDVPRPLGQGTLVTVSSGGGGSGGGGSGGGGSGGGGSEVQLLESGGGLVQPGGSLRLSCAASGFTFSDYTMTWVRQAPGKGLEWVSTVNPDGDSTFYRDSVKGRFTISRDNAKNTLYLQLSSLKTEDTAMYYCTKASLITWPQSPRGQGTLVTVSSGGGGSGGGGSGGGGSGGGGSEVQLLESGGGLVQPGESLRLSCEVSGHTHTNYCMGWFRQAPGKGLEGVAAIDTDGSTTYADSVKGRFTISKDNAKNTLYLQMNSLKPEDTAMYYCMAEDFRDEYAPEPRLSSGGYCSIGYGMDYWGKGTLVTVSSA
# notes: Trivalent long-acting nanobody: two anti-IL-13 VHH and one anti-HSA VHH in one chain; also called HSA HuNb3-11-MY9286-GS20-MY9293-GS20
# B8: HuNb3-11 (VHH)
# VHH: EVQLQESGGGLVEPGGSLRLSCVASGFTFQHYAMSWVRQAPGKGLEWVSSISMVGGGTSYADSVKGRFTMSRDNAKNTLYLQLNSLKSEDTAMYYCVRGWHPDVPRPLGQGTLVTVSS
# notes: also called HSA HuNb3-11; Control antibody 3
# B9: MY9464 (VHH)
# chain: EVQLLESGGGLVQPGESLRLSCEVSGHTHTNYCMGWFRQAPGKGLEGVAAIDTDGSTTYADSVKGRFTISKDNAKNTLYLQMNSLKPEDTAMYYCMAEDFRDEYAPEPRLSSGGYCSIGYGMDYWGKGTLVTVSSGGGGSGGGGSGGGGSGGGGSEVQLLESGGGLVQPGGSLRLSCAASGFTFSDYTMTWVRQAPGKGLEWVSTVNPDGDSTFYRDSVKGRFTISRDNAKNTLYLQLSSLKTEDTAMYYCTKASLITWPQSPRGQGTLVTVSS
# B10: MY9217 (bispecific antibody)
# chain: EVQLLESGGGLVQPGGSLRLSCAASGFTFSDYTMTWVRQAPGKGLEWVSTVNPDGDSTFYRDSVKGRFTISRDNAKNTLYLQLSSLKTEDTAMYYCTKASLITWPQSPRGQGTLVTVSSGGGGSGGGGSGGGGSGGGGSEVQLQESGGGLVEPGGSLRLSCVASGFTFQHYAMSWVRQAPGKGLEWVSSISMVGGGTSYADSVKGRFTMSRDNAKNTLYLQLNSLKSEDTAMYYCVRGWHPDVPRPLGQGTLVTVSSGGGGSGGGGSGGGGSGGGGSEVQLLESGGGLVQPGESLRLSCEVSGHTHTNYCMGWFRQAPGKGLEGVAAIDTDGSTTYADSVKGRFTISKDNAKNTLYLQMNSLKPEDTAMYYCMAEDFRDEYAPEPRLSSGGYCSIGYGMDYWGKGTLVTVSSA
# notes: Trivalent long-acting nanobody: two anti-IL-13 VHH and one anti-HSA VHH in one chain; also called MY9286-GS20-HSA HuNb3-11-GS20-MY9293
# Experiments:
# recombinant human IL-13 [1] = target: T1, recombinant human IL-13 (human, UniProt P35225 35-146, limits assumed); assay: cell-based or functional assay
# recombinant human IL-13 [2] = target: T1, recombinant human IL-13; assay: cell-based or functional assay; remark: listed apart in the source
# recombinant human IL-13 [3] = target: T1, recombinant human IL-13; assay: cell-based or functional assay; remark: listed apart in the source
# human serum albumin [4] = target: T2, human serum albumin (human, UniProt P02768 25-609); assay: HSA binding activity, pH 7.4; method not described
# T2 construct: also called HSA
# human serum albumin [5] = target: T2, human serum albumin; assay: HSA binding activity, pH 5.5; method not described
# T1 sequence (P35225 35-146 limits assumed): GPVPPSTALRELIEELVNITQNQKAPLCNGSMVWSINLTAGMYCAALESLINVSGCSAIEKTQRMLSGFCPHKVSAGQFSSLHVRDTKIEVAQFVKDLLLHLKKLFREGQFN
Binder,"Activity IC50 (µg/mL), HEK-Blue IL-4/IL-13 cells (recombinant human IL-13 [1])",IL-13 functional activity IC50 (recombinant human IL-13 [3]),EC50 (human serum albumin [4]),EC50 (human serum albumin [5]),also measured
B1,1.75 µg/mL,,,,
B2,0.0014 µg/mL,,,,
B3,,,,,"Humanized nanobody IC50 (µg/mL), HEK-Blue IL-4/IL-13 cells (recombinant human IL-13 [2]): 3.42 µg/mL"
B4,,0.0076 µg/mL,,,"Control antibody 2 IC50 (µg/mL), HEK-Blue IL-4/IL-13 cells (recombinant human IL-13 [1]): 0.0043 µg/mL and 0.0041 µg/mL and 0.004 µg/mL"
B5,,,,,"Humanized nanobody IC50 (µg/mL), HEK-Blue IL-4/IL-13 cells (recombinant human IL-13 [2]): 1.05 µg/mL"
B6,0.0038 µg/mL,,,,
B7,,0.0024 µg/mL,0.0467 µg/mL,0.0648 µg/mL,
B8,,,0.11 µg/mL,0.164 µg/mL,
B9,0.0029 µg/mL,,,,
B10,,0.0029 µg/mL,0.0648 µg/mL,0.0953 µg/mL,
